Data from patent publication US11149086B2, “KV1.3 binding immunoglobulins” (Ablynx N.V., priority 2014, dated 2021).
Where two headings read alike, the source gives them in different places.

Tests used:
[1] = target: T1, human Kv1.3 (Homo sapiens, UniProt P22001); test: IonFlux automated patch clamp, Kv1.3-expressing HEK293H cells; format: cell-based; details: monovalent Nanobodies, concentration at which Kv1.3 current is 50%
T1 construct: cell lines stably expressing the full length human Kv1.3 channel
T1 sequence (P22001 whole entry): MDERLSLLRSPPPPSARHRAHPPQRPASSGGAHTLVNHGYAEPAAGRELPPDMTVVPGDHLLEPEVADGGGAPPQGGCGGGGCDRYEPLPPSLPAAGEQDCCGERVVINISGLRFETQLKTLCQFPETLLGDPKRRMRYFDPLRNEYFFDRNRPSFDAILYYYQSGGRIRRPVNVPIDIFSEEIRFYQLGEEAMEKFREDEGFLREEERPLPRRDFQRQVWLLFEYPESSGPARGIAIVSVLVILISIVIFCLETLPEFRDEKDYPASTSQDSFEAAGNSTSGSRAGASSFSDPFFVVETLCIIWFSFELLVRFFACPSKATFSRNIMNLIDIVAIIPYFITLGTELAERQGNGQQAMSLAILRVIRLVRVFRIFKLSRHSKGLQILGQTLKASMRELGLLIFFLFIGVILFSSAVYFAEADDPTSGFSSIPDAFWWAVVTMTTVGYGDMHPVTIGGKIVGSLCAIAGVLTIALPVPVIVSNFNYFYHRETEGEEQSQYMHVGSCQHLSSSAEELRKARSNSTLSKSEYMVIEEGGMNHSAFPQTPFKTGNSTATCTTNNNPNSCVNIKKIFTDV
Description: Periplasmic extracts were electrophysiologically screened for inhibitory effects on the voltage-gated potassium channel Kv1.3 on the IonFlux™ automated Patch Clamp using Kv1.3-expressing HEK293H cells. The complete procedure for evaluating the modulatory effect of periplasmic extracts on human Kv1.3 via electrophysiological recordings is given below.
The IonFlux™ (Molecular Devices) is an automated patch clamp system with integrated Well Plate Microfluidic™ Technology, temperature control and continuous perfusion and voltage clamp. The IonFlux™ 16 has sixteen parallel amplifiers and uses 96-well IonFlux plates conform to the Society for Biomolecular Sciences. This system allows both population and single cell patch clamp.
Extracellular solution contained (in mM): 132 NaCl, 5.4 KCl, 1.8 CaCl2, 0.8 MgCl2, 10 HEPES, 5 glucose (pH 7.2 with NaOH, and 285-290 mOsmolar). Intracellular solution contained (in mM): 40 KF, 100 KCl, 2 MgCl2, 10 HEPES, 5 EGTA (pH 7.45 with CsOH, and 300-315 mOsmolar). These solutions were freshly made, stocked for no longer than a month at 4° C. and filtered prior to use. […]
HEK293H cells stably expressing the human Kv1.3 channel were generated in house. […] Cells were counted (Casy T T, Roche), suspended at 1 million cells/ml, transferred to a new 50 ml conical CELLSTAR® tube and gently shaken at RT for approximately 20 min. […]

[2] = tested on: CCR7−CD45RA− T cells; format: cell-based, human; details: for IC50: monovalent Nanobodies
Description: The purified anti-Kv1.3 Nanobodies were characterized in a T Cell-activation assay. Human T Cells were first collected from Buffy Coat blood (from healthy volunteers, Bloodbank Gent) using RosetteSep (StemCell Technologies, #15061) followed by an enrichment on Ficoll-Paque™ PLUS (GE Healthcare #17-1440-03). CCR7−CD45RA− T cells were isolated through negative selection using biotinylated antibodies against CD45RA (BD Bioscience #624008) and CCR7 (BD Bioscence #624009) in addition to the Dynabeads Biotin Binder (Invitrogen #110.47). The purity of the population was afterwards checked with anti-CD3 (eBioscience #12-0037-73); anti-CD8 (BD Bioscience #345775); anti-CD4 (BD Bioscience #345771); anti-CD45RO (BD Bioscience #555493); anti-CD45RA (BD Bioscience #550855); anti-rat IgG (Jackson ImmunoResearch Laboratories #112-116-143); anti-CD19 (BD Bioscience #555413) and anti-Human CCR7 (R&D Systems #MAB197) labeled antibodies in flow cytometric assay.
Isolated CCR7^−CD45RA^− T Cells were then stimulated on anti-CD3 (eBioscience 16-0037-85; 540 ng/ml) coated 96-well plates at a concentration of 200 000 cells/well in absence or presence of dilution series of anti-Kv1.3 antibodies and ShK positive control (Smartox, #08SHK001). After 72 h, IFN-gamma production was measured with anti-human IFNγ antibody capture in ELISA (BD Bioscence #551221) combined with biotinylated anti-human IFNγ (BD Bioscience, #554550) and streptavidin-HRP (Dakocytomation #P0397) as detection (FIG. 11A-11B).
In addition, also CD25 expression was measured in flow cytometry, using an anti-CD25 antibody (BD Pharmingen, cat 557138) (FIG. 11C-11D). […]

[3] = target: T1, human Kv1.3; test: IonWorks Quattro automated perforated patch clamp, Kv1.3-expressing CHL cells; format: cell-based; details: monovalent Nanobodies, sustained current P1
Description: Selected Nanobodies were electrophysiologically characterized on human Kv1.3 on the IonWorks automated perforated-Patch Clamp using Kv1.3-expressing Chinese Hamster Lung (CHL) cells. The procedure for evaluating the modulatory effect of the purified Nanobodies on human Kv1.3 via electrophysiological recordings is given below.
IonWorks Quattro (Molecular Devices) is a second-generation screening instrument that provides membrane voltage control and provides a direct electrophysiological assay for screening and characterization of compounds. It is an automated, high-throughput planar perforated patch clamp that uses a 384-well PatchPlate™ substrate.
Extracellular solution contained (in mM): 138 NaCl, 2.7 KCl, 0.9 CaCl2, 0.5 MgCl2, 8 Na2HPO4, and 1.5 KH2PO4 (pH 7.3 with NaOH, and 285-290 mOsmolar). The intracellular solution contained (in mM): 100 K-gluconate, 40 KCl, 3.2 EGTA, 5 HEPES and 3.2 MgCl2 (pH 7.3 with KOH, and 300-315 mOsmolar). These solutions were freshly made, stocked for no longer than a month at 4° C. and filtered prior to use. The selected Nanobodies were directly diluted in extracellular solution to obtain a 3 μM sample solution. […]
The basic principles of IonWorks automated patch clamp electrophysiology are described by Schroeder et al. (J Biomol Screen 8(1):50-64, 2003). […] In PPC mode, an ensemble average of the current from up to 64 cells per well was recorded. […]

Row | Molecule | IC50 [1] [nM] | inhibition of T-cell stimulation (IFNγ, CD25), in words ([2]; anti-CD3 stimulation) | IC50 ([2]; plate bound anti-CD3, 72 h, read-out: IC50 (in M) IFNγ read out) [nM] | IC50 ([2]; plate bound anti-CD3, read-out: IC50 (in M) CD25 read out) [nM] | IC50 [3] [nM]
1 | A0194020A06: monovalent anti-Kv1.3 Nanobody, family 12 (protein, Nanobody sequence) VHH: EVQLVESGGGLVQAGGSLGLSCSASGLLFSRNSAGWYRQAPGKRREFVARIRMGGSINYADSVKGRFTVSRDNAKNMMYLQMNDLKPEDTAVYFCSGWREGFYEYWGQGTLVTVSS | 13.4 | clearly inhibited | 30 | 36 | –
2 | A0194016B04: monovalent anti-Kv1.3 Nanobody, family 12 (protein, Nanobody sequence) VHH: EVQLVESGGGLVQAGGSLRLSCSASGLLFSVNSAGWYRQAPGKQRDFVARIRSGGSTNYADSVKGRFTISRDKATNTLYLQMNNLKPEDTAVYYCSSWRTEAYEYWGRGTLVTVSS | 84 | – | – | – | 34
